The test system of data set [1] is CylA. Nature of the data set: CylA self-cleavage (SDS-PAGE, MALDI-TOF MS). It is filed as biochemical, Enterococcus faecalis. As for the experimental part:
E. coli BL21 (DE3) cells were transformed with pRSFDuet-1/CylA-27-412, pRSFDuet-1/CylA-27-412-E95A, pRSFDuet-1/CylA-27-412-S359A or pRSFDuet-1/LicP-25-433 vectors and plated on an LB plate containing 50 mg/L kanamycin. A single colony was picked and grown in 20 mL of LB with kanamycin at 37° C. for 12 h and the resulting culture was inoculated into 2 L of LB. Cells were cultured at 37° C. until the OD at 600 nm reached 0.5, cooled and IPTG was added to a final concentration of 0.1 mM. The cells were cultured at 18° C. for another 10 h before harvesting. The cell pellet was resuspended on ice in LanP start buffer (20 mM HEPES, 1 M NaCl, pH 7.5 at 25° C.) and lysed by homogenization. The lysed sample was centrifuged at 23,700×g for 30 min and the pellet was discarded. The supernatant was passed through 0.45-μm syringe filters and the protein was purified by immobilized metal affinity chromatography (IMAC) loaded with nickel as described in B. Li et al. Methods Enzymol. 2009, 458, 533. […] Protein concentration was quantified by its absorbance at 280 nm. The extinction coefficient for His6-CylA-27-412, His6-CylA-27-412-E95A and His6-CylA-27-412-S359A was calculated as 30,830 M^−1 cm^−1. The extinction coefficient for His6-LicP-25-433 was calculated as 46,300 M^−1 cm^−1. […]

For data set [2], the target named is dehydrated and cyclized LanA2 from B. licheniformis 9945A.
Data set [3] has as its system modified CylLS. Nature of the data set: Kinetic analysis of full length CylA and CylA-96-412 against modified CylLS (LC/MS). It is filed as biochemical, Enterococcus faecalis. The protocol: Targeted peptides were dissolved in H2O to a final concentration of 3 mg/mL. To a 85 μL solution of peptides, 10 μL of 500 mM HEPES buffer (pH 7.5) was added followed by 5 μL of 0.5 mg/mL AspN protease (for modified CylLL and CylLS peptides), 0.1 mg/mL CylA protease (for modified and unmodified CylLL, CylLS peptides, and modified HalA2-GDVQAE peptide) or 0.1 mg/mL LicP protease (for LicA2). For cleavage tests of the engineered GDVQAE peptides, CylA was added to a final concentration of 0.01 mg/mL, whereas the peptide was added to a concentration of 0.3 mg/mL with 50 mM HEPES buffer (pH 7.5). The protease cleavage reaction mixtures were kept at 25° C. for 1 to 48 h. Osmotic pressure was adjusted with NaCl solution with a final concentration of 150 mM. The digested peptide mixture was directly used for antimicrobial and hemolytic assay. For the kinetic analysis of CylA and its mutant proteins, His6-CylA-27-412 and His6-CylA-27-412-E95A proteins were added to a final concentration of 500 ng/mL and 2.5 μg/mL (22 nM and 110 nM), respectively, with modified CylLS supplied at a concentration of 0.3 mg/mL (36 μM). The reactions were allowed to proceed at room temperature and were stopped by 1% TFA at different time points for LC/MS analysis. Halα and Halβ were obtained by factor Xa cleavage of modified HalA1Xa and HalA2 Xa peptides using the procedure of Y. Shi, et al. J. Am. Chem. Soc. 2011, 133, 2338. CylLL″ and CylLS″ were prepared in the same way using modified CylLL-E-1K and CylLS-E-1K peptides as described in W. Tang and W. A. van der Donk, Nat. Chem. Biol. 2013, 9, 157.
As full length CylA is not available due to its self-cleavage, His6-CylA-27-412-E95A was chosen to serve as a substituent of full length CylA as the self-cleavage was abolished whereas the conserved catalytic C-terminal region of CylA remained unchanged. To obtain the mature protease CylA-96-412, His6-CylA-27-412 was aged at 4° C. for 12 hours to allow the self-cleavage to proceed until CylA-96-412 was the dominant peak monitored by MALDI-TOF MS. The aged protein mixture was directly used as a substituent of CylA-96-412. To test the proteases' activities, CylA-96-412 and His6-CylA-27-412-E95A were supplied with a final concentration of 22 nM and 110 nM, respectively, with modified CylLS served at a concentration of 36 μM. The reactions were stopped at 3 minute, 6 minute, 12 minute and 24 minute by 1% TFA and the formation of mature CylLS″ was monitored by liquid chromatography MS (LC/MS). […] The production of core peptide was analyzed by extracted ion chromatography monitoring the desired product mass 1017 (M+2H^+).

Data set [4] has as its target modified CylLS.
Data set [5] has as its target T1, LanA3 encoded by the genome of B. cereus VD156.
T1 chain: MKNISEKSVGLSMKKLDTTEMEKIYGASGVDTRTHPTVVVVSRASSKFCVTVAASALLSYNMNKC

Experimental findings from patent US20240018501A1, “HIGHER PERFORMANCE PROTEASES FOR SCARLESS PEPTIDE TAG REMOVAL” (priority 2017, published 2024) are described below.

B1: His6-CylA-27-412: CylA without secretion signal residues 1-26, N-terminal hexa-histidine tag, SEQ ID NO: 10 (protein)
chain: MGSSHHHHHHSQDPNSLSNNISFFIDNSQTTAIEEIESELSSEKVDYIQEIGLVSFKNLDDSDRKFIGKYFNVSEGKKLPDFKPEEVNSSILNINILNKDFKSFNWPYKKILSHIDPVKEQLGKDITIALIDSGIDRLHPNLQDNNLRLKNYVNDIELDEYGHGTQVAGVIDTIAPRVNLNSYKVMDGTDGNSINMLKAIVDATNDQVDIINVSLGSYKNMEIDDERFTVEAFRKVVNYARKNNILIVASAGNESRDISTGNEKHIPGGLESVITVGATKKSGDIADYSNYGSNVSIYGPAGGYGDNYKITGQIDAREMMMTYYPTSLVSPLGKAADFPDGYTLSFGTSLATPEVSAALAAIMSKNVDNSKDSNEVLNTLFENADSFIDKNSMLKYKEVRIK
modifications: N-terminal His6 tag; … PEPTIDE SEQUENCE FOR CylA with His6-tag, without the secretion signal peptide.
As to B1, the “CylA self-cleavage during expression or purification” value in data set [1] is on record as “cleavage event after residue Glu95”.

B2: LanP from B. licheniformis 9945A (without signal sequence, with His6 tag) (protein)
chain: MGSSHHHHHHSQDPDRYTIYLESPAHHDDWVKTLNERNIKLVYSVEEIGLYQIEGRQKEVQELAAEINYINSHNQSVAMQPASLHNTAPAEATIFGGTPTLWDDFQWDMRKATNNGQTYQITEGSKNTIVGIIDSGIDMNHPDLKENILSVRNFVPKGGLRGQEPYEKGDINDSTDYLGHGTFVAGQIAANGLMKGIAPETGIRSYRVFGGKSADTVWIIDAIIQAAIDDVDIINVSFGTFLVKQNRKNKQMPDTNDLAEIKAFKKAVSFAHKKGSAVVASIGNEGLDLKDKNAVFEYWRSTKQEDLSADGKVILIPAQLPNVVTVSSIGPSGMRSVFSNYGKNVVDIAADGGDLRLLNEVGEDRYYGEGLFRQEYILGAAPGVTYTFSIGTSIAAPKVSGALALLIDQKQLHDKPDKAVKILLKNADRNADKIDTGAGVLNVYRALTD
For B2, the “cleavage by the corresponding LanP, MALDI-TOF MS” value in data set [2] is “fully modified core peptide is observed after protease treatment (inset) ... the leader peptide is also observed”.

B3: His6-CylA-27-412-E95A (protein)
chain: MKRIYIFLLCFAVLLPVGGKTAQAKEQAGEQYLLLEHVKDKSKLLDTAEQFHIHADVIEEIGFAKVTGEKQKLAPFTKKLAEKVGADVIEKPIANTAVNETESVISGSPAWGLDGILELKEYLWFAAKQTDSYRTYQIERGHPDVKVALIDSGLDLDHPDLKASVNTNGGWNYIDGKPVSGDPTGHGTQTAGMINIIAPDVTITPYQVLDEKGGDSYNIMKAMVDAVNDGHEVINISTGSYTSLDREGKVLMKAYQRAANYAAKHQVLVFSSAGNKGVNLDEMRKTENKVHLPSALKHVVSVGSNMKSNNISPYSNQGREIEFTAPGGYLGETYDQDGMVRVTDLVLTTYPKGKDNTALDQMLNIPKGYSLSYGTSLAAPQVAGTAALVISEYRERHHRKPSAKQVHHILRKSALDLGKPGKDVIYGYGEVRAYQALKMMNKE
As to B3, in data set [3], the “cleavage of modified CylLS” value was “resulted in cleavage”. In addition, the “lower rate of producing CylLS″” value in data set [3] (enzyme 110 nM, modified CylLS 36 μM, versus CylA-96-412) is reported as about 10 fold. Moreover, the “CylA self-cleavage during expression or purification” value in data set [1] is reported as “only one band corresponding to the full length protein”. Also, in data set [4], the “cleavage by His6-CylA-27-412-E95A” value is recorded as “Incubation of modified CylLS with His6-CylA-27-412-E95A resulted in cleavage” and the “fold lower rate of producing CylLS″ than CylA-96-412 (LC/MS; 110 nM enzyme, 36 µM substrate)” value was “exhibited an approximate 10-fold lower rate of producing CylLS″”.

B4: LanP of B. cereus VD156 (without signal sequence, with His6 tag) (protein)
chain: MGSSHHHHHHSQDPTQIAYYSILIRDNTDFNTVLDKLSKDNQEVVYSIPEVNLIQVKGEKGKIISGIGLESIEEINPSTGEFKTYTPNINDQKVLDNKAIWDVQWDIKRITNNGESYKLHSPSGKVSVALIDSGYPENHPDIKSISIQKSKNLVPKGGYKGNEENETGNIHQLTDRTGHGTSVLSQVNADGLMKGVAPGMPVNMYRVFGESSAEGSWIIKGIIEAAKDKNDVINISAGSYLLKNGTYSDGSGNNRAEIKAYEKAIHYANKKGSIVVSALGNDSININIYSELLSILNSKIKDEGKSATGIVQDIPAQLAQVVSVASTGMDSKVSSFSNYGKNIIDFTAPGGDIKLLNKFGADVWMAEEMFKKEMILVAHPQGGYYFNYGNSLATPKVSGALALVIDKYGYKNKPNKAINHLKRNTNAENEIDLYKALQE
Consider B4, for which the “cleavage by the corresponding LanP, MALDI-TOF MS” value in data set [5] was “the core peptide is detected ... and the leader peptide is also observed”.
